Source: publication PMC6613369

Substrate: CO[C@@H]1O[C@H](CO)[C@H](O)[C@@H](O)[C@H]1O
Test: purified protein
Assay type: biochemical, Escherichia coli
Conditions: oxidation, 2.0 mM NAD+, 50 mM HEPES/K+, pH 8.0, 30 °C

B1: YcjQ (Escherichia coli K-12) (protein)
chain: MKKLVATAPRVAALVEYEDRAILANEVKIRVRFGAPKHGTEVVDFRAASPFIDEDFNGEWQMFTPRPADAPRGIEFGKFQLGNMVVGDIIECGSDVTDYAVGDSVCGYGPLSETVIINAVNNYKLRKMPQGSSWKNAVCYDPAQFAMSGVRDANVRVGDFVVVVGLGAIGQIAIQLAKRAGASVVIGVDPIAHRCDIARRHGADFCLNPIGTDVGKEIKTLTGKQGADVIIETSGYADALQSALRGLAYGGTISYVAFAKPFAEGFNLGREAHFNNAKIVFSRACSEPNPDYPRWSRKRIEETCWELLMNGYLNCEDLIDPVVTFANSPESYMQYVDQHPEQSIKMGVTF
Km: 12.5 ± 1.5 mM
kcat: 0.35 ± 0.03 s⁻¹
kcat/Km: 28 ± 3 M⁻¹ s⁻¹
